Measured values published in patent US20120165211A1, “Human Antibodies Cross-Reacting With A Bacterial And A Self Antigen From Atherosclerotic Plaques” (priority 2007, published 2012).

Columns and labels:
[1] = target: T1, recombinant transgelin (rTAGLN) (Homo sapiens, UniProt Q01995); format: binding; conditions: 4-500 ng rTAGLN per well
T1 construct: purchased Origene TP302448

[2] = target: T2, transgelin 1 (SM22) (Homo sapiens, UniProt Q01995); experiment: 2D electrophoresis Western blotting on plaque lysate and MALDI-ToF identification of the recognized antigen; format: binding; conditions: two distinct spots of the 2D gel; confirmed by protein sequencing
T2 construct: A piece of the coronary plaque was weighted (65 mg), cut in small fragments and directly smashed with a Dounce; from tissue; host or cells: human coronary atherosclerotic plaque
T2 sequence (Q01995 whole entry, the tested form may be a part): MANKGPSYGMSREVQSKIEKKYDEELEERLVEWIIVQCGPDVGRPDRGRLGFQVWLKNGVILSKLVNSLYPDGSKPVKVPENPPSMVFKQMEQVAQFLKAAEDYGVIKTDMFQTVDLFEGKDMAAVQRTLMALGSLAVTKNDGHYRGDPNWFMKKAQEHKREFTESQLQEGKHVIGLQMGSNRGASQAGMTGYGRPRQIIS
Experimental: A piece of the coronary plaque was weighted (65 mg), cut in small fragments and directly smashed with a Dounce in 500 μl of the R5 buffer, containing: urea 8M, thiourea 2M, CHAPS 4%, Zwittergent 0.05%, 40 mM trizma base and a cocktail of protease inhibitors. The lysate was then sonicated for 5 minutes and centrifuged at 13,000 rpm for 30 minutes at 15° C. Supernatant protein content was evaluated by Bradford assay, using BSA dissolved in the same buffer, as standard. The proteins (200 μg), dissolved in R5 buffer (final volume 130 μl), were added to DeStreak (100 mM) and 2% IPG buffer pH 3-10NL, prior to loading the sample on strip pH 3-10NL, 7 cm. Total focusing run for the 1st dimension was 50,000 Vh. The 2nd dimension was carried out using 12.5% acrylamide SDS-PAGE. MW Standard proteins were run on the same gel. The gel was stained with colloidal Coomassie Brilliant Blue (cCBB). […]
Protein corresponding to positive spots in WB were excised from the gel, destained, reduced with DTE (10 mM in ammonium bicarbonate 25 mM) at 56° C. for 30 minutes, alkylated with IAA (55 mM in ammonium bicarbonate 25 mM) in the dark at room temperature for 20 minutes. They were digested with trypsin and directly analysed by MALDI-ToF mass spectrometry, using alpha-cyano-4-hydroxycinnamic acid as matrix. […]

[3] = tested on: carotid plaque; experiment: Immunohistology (immunofluorescence) on carotid plaque sections; format: binding, human; conditions: 7816Fab-FLAG detected with anti-FLAG clone M2 and anti-Mouse IgG AlexaFluor488
Experimental: Carotid plaques harvested during TEA surgery, just after excision were fixed in 4% paraformaldehyde in PBS, cut in consecutive 2 mm thick rings, decalcified in EDTA solution when required, cryoprotected in 10% sucrose in PBS, embedded in OCT compound, then snap frozen in isopentane/liquid nitrogen and stored at −80° C. Cryosections ([…]) were cut from every ring and stained with either Hematoxylin/Eosin or Movat's pentachrome, thus the morphology was examined in at least 4 sections/ring using an Eclipse 55i microscope equipped with DS-L1 camera and LUCIA 4.82 software (all from Nikon, Tokyo, J). Multiple images collected from each ring, were composed by LUCIA 4.82 software, to obtain a whole section picture. The presence of thin cap, foam cells, fibrolipids, ulcerations, necrotic/thrombotic core, calcifications, hemorrhage/thrombosis and inflammatory infiltrate were used to classify carotid plaques as stable, vulnerable, or unstable, following Virmani's modified AHA classification. Additional sections (10 μm thick) from rings with and without atheroma were selected and submitted for immunolabeling with anti CD138 antibody or with 7816Fab-FLAG detected with anti-FLAG clone M2 followed by rabbit-anti-Mouse IgG AlexaFluor488. DAPI stained the nuclei. […] The nuclear fluorescence was due to DAPI staining.

[4] = target: T3, purified OmpK36 (Klebsiella pneumoniae, UniProt Q48473); experiment: Western blot of purified OmpK36 with recombinant Fabs; format: binding; conditions: 400 ng OmpK36His per lane; Fabs at 10 μg/L; blocking PBS/BSA10%
T3 construct: made in house; host or cells: E. coli BL21 (DE3), pET28b (BamHI/XhoI cloning)
Experimental: 400 ng of purified OmpK36His was loaded on polyacrylamide gel (all lanes) and SDS-PAGE was performed. Proteins were blotted on PVDF membrane for 2 h at 350 mA. After blocking with PBS/BSA10% the membrane was cut to single lanes and each lane was incubated for 1 h with Fabs at 10 μg/L. After three washes membrane was incubated with anti-Human Light Chain K antibody (Sigma).

[5] = tested on: antigen in the carotid lysate; experiment: Western blotting on carotid lysates; format: binding, human; conditions: Fab 10 μg/ml; protein extracts 20 μg/lane
Experimental: Carotid plaques were macrodissected in 2 mm-thick rings and frozen in isopentane/liquid nitrogen. Every ring was considered as a single specimen. For each patient proteins were extracted from a stenotic and a non-stenotic ring by tissue homogenization in RIPA lysis buffer. The protein content of carotid plaque homogenates was quantified by Bradford assay. Western blot was performed on protein extracts (20 μg/lane) by using 10% Sodium Dodecyl Sulphate-PolyAcrylamide Gel Electrophoresis (SDS-PAGE). SDS-PAGE loading buffer was added to protein lysates before heating at 90° C. for 5 min. Gel was run for about 2 hours at 120V. […] Target (7816-FLAG) and reference proteins (bActin) were detected with specific antibodies (anti-FLAG clone M2 followed by Rabbit-anti Mouse IgG-HRP, and Rabbit-anti Mouse IgG-HRP, respectively—all from Sigma (cod: A9917, St. Louis, Mo.). The membrane was developed by SuperSignal West Pico Chemiluminescent Substrate (Pierce) according to the manufacture instructions. The mean pixel optical density (OD) for each band of the target protein, determined by densitometry, was normalized vs. β-Actin, to evaluate its quantity with respect to carotid plaque total cells. Stenotic and non stenotic rings from stable and unstable (determined by US) carotid plaque specimens were compared.

T1 sequence (Q01995 whole entry): as the sequence (Q01995 whole entry, the tested form may be a part) above

B1: Fab7816: human recombinant Fab from coronary plaque library ID11LIB; heavy chain SEQ ID NO:2, light chain SEQ ID NO:4 (antibody, listed as Homo sapiens, V domains shown)
VH: LESGPGQVKPSQTLSLTCTVSGGSIGSGSYSWNWIRQPAGRGLEWIGRISDSGNTNFNPSLKSRVTMSVDTSKNQFALKLTSVTAADTATYFCARGRGILTGLFDYWGQGSLVSVSSASTKGPSVFPLAPSSKSTSGGTAALGCLVKD
VL: SPDSLAVSPGGRATIKCASSQSVLDNSNHKNSLAWYQQKPGLPPKLLIYWASTRYSGVPDRFSGSGSGTDFTLTINNLQAADVAVYFCQQYYSTPWTFGQGTKVE
For B1, the “binding to human transgelin in Western blot” value [1] was “recognize human transgelin”, the “self antigen recognized in plaque lysate (2DE-WB spots, mass spectrometry)” value [2] was “transgelin 1 (SM22) was unequivocally identified as the putative natural (self) antigen” and the “immunofluorescence staining of carotid plaque sections” value [3] was “specific immonostaining, mainly cytoplasmic”. The “reactivity with purified OmpK36 in western-blot” value [4] was “react with purified OmpK36” and the “binding in Western blot on carotid lysate” value [5] was “binding with an antigen in the carotid lysate”.
